Molecular target: CaMKIIα (UniProt P11275 1-478)
Assay: fluorescence polarisation

Chain of CaMKIIα (P11275 whole entry): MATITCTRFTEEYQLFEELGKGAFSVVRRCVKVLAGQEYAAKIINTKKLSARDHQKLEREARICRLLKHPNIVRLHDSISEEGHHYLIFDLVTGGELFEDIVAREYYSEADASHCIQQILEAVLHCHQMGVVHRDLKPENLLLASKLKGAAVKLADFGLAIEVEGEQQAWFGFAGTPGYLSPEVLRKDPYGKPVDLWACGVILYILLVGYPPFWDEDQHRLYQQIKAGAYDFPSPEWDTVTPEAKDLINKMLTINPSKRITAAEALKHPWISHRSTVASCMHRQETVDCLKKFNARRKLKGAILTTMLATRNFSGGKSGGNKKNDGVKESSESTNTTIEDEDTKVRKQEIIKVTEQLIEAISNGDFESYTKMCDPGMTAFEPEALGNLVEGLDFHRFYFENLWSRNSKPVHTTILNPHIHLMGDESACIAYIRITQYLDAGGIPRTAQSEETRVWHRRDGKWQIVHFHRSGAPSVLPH

Kd: 0.031 ± 0.007 µM
B1: IQ peptide TVGKFYATFLIQEYFR of Cav1.2/Cav1.3 (peptide)
peptide: TVGKFYATFLIQEYFR
